Patent US20170306033A1 (Amgen, published 2017)

T1: human PAC1 receptor (human, UniProt P41586 21-468)
T1 sequence: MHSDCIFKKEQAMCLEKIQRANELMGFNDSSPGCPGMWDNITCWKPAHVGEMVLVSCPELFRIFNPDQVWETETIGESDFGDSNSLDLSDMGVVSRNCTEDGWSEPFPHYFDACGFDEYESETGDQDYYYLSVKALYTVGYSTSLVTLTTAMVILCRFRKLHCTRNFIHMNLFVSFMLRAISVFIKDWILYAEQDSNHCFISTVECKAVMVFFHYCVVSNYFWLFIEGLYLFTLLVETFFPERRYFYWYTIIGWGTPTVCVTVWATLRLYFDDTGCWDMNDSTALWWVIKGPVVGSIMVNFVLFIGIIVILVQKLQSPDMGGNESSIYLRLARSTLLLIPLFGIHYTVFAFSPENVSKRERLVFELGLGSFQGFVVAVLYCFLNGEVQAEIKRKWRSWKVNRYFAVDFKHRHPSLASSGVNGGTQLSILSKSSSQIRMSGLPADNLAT

B1: iPS:327689 (bispecific antibody, human IgG1, kappa, lambda, N297G)
light 1: not shown
heavy 1: not shown
light 2: QSVLTQPPSVSAAPGQKVTISCSGSSSNIGNNYVSWYQQLPGTAPKLLIYDNNKRPSGIPDRFSGSKSGTSTTLGITGLQTGDEADYYCGTWDSRLSAVVFGGGTKLTVLGQPKANPTVTLFPPSSEELQANKATLVCLISDFYPGAVTVAWKADGSPVKAGVETTKPSKQSNNKYAAKSYLSLTPEQWKSHRSYSCQVTHEGSTVEKTVAPTECS
heavy 2: QVQLVESGGGVVQPGRSLRLSCAASGFTFSSFGMHWVRQAPGKGLEWVAVISFDGSIKYSVDSVKGRFTISRDNSKNTLFLQMNSLRAEDTAVYYCARDRLNYYESSGYYHYKYYGMAVWGQGTTVTVSSASTKGPSVFPLAPSSKSTSGGTAALGCLVKDYFPEPVTVSWNSGALTSGVHTFPAVLQSSGLYSLESVVTVPSSSLGTQTYICNVNHKPSNTKVDKKVEPKSCDKTHTCPPCPAPELLGGPSVFLFPPKPKDTLMISRTPEVTCVVVDVSHEDPEVKFNWYVDGVEVHNAKTKPCEEQYGSTYRCVSVLTVLHQDWLNGKEYKCKVSNKALPAPIEKTISKAKGQPREPQVYTLPPSRKEMTKNQVSLTCLVKGFYPSDIAVEWESNGQPENNYKTTPPVLKSDGSFFLYSKLTVDKSRWQQGNVFSCSVMHEALHNHYTQKSLSLSPGK
B2: iPS:327690 (bispecific antibody, human IgG1, kappa, lambda, N297G)
light 1: not shown
heavy 1: not shown
light 2: B1 light 2
heavy 2: B1 heavy 2
B3: iPS:327691 (bispecific antibody, human IgG1, kappa, lambda, N297G)
light 1: DIQLTQSPSFLSASVGDRVTITCRASQSIGRSLHWYQQKPGKAPKLLIKYASQSLSGVPSRFSGSGSGTEFTLTISSLQPEDFATYYCHQSSRLPFTFGPGTKVDIKRTVAAPSVFIFPPSDEQLKSGTASVVCLLNNFYPREAKVQWKVDNALQSGNSQESVTEQDSKDSTYSLESTLTLSKADYEKHKVYACEVTHQGLSSPVTKSFNRGEC
heavy 1: not shown
light 2: B1 light 2
heavy 2: B1 heavy 2
B4: iPS:328001 (bispecific antibody, human IgG2, kappa, lambda)
light 1: EIVLTQSPATLSLSPGERATLSCRASQSVGRSLHWYQQKPGQAPRLLIKYASQSLSGIPARFSGSGSGTDFTLTISSLEPEDFAVYYCHQSSRLPFTFGPGTKVDIKRTVAAPSVFIFPPSDEQLKSGTASVVCLLNNFYPREAKVQWKVDNALQSGNSQESVTEQDSKDSTYSLESTLTLSKADYEKHKVYACEVTHQGLSSPVTKSFNRGEC
heavy 1: QVQLVESGGGVVQPGRSLRLSCAASGFTFSRFAMHWVRQAPGKGLEWVAVISYDGGNKYYAESVKGRFTISRDNSKNTLYLQMNSLRAEDTALFYCARGYDVLTGYPDYWGQGTLVTVSSASTKGPSVFPLAPCSRSTSESTAALGCLVKDYFPEPVTVSWNSGALTSGVHTFPAVLQSSGLYSLKSVVTVPSSNFGTQTYTCNVDHKPSNTKVDKTVERKCCVECPPCPAPPVAGPSVFLFPPKPKDTLMISRTPEVTCVVVDVSHEDPEVQFNWYVDGVEVHNAKTKPREEQFNSTFRVVSVLTVVHQDWLNGKEYKCKVSNKGLPAPIEKTISKTKGQPREPQVYTLPPSREEMTKNQVSLTCLVDGFYPSDIAVEWESNGQPENNYDTTPPMLDSDGSFFLYSDLTVDKSRWQQGNVFSCSVMHEALHNHYTQKSLSLSPGK
light 2: B1 light 2
heavy 2: QVQLVESGGGVVQPGRSLRLSCAASGFTFSSFGMHWVRQAPGKGLEWVAVISFDGSIKYSVDSVKGRFTISRDNSKNTLFLQMNSLRAEDTAVYYCARDRLNYYDSSGYYHYKYYGMAVWGQGTTVTVSSASTKGPSVFPLAPCSRSTSESTAALGCLVKDYFPEPVTVSWNSGALTSGVHTFPAVLQSSGLYSLESVVTVPSSNFGTQTYTCNVDHKPSNTKVDKTVERKCCVECPPCPAPPVAGPSVFLFPPKPKDTLMISRTPEVTCVVVDVSHEDPEVQFNWYVDGVEVHNAKTKPREEQFNSTFRVVSVLTVVHQDWLNGKEYKCKVSNKGLPAPIEKTISKTKGQPREPQVYTLPPSRKKMTKNQVSLTCLVKGFYPSDIAVEWESNGQPENNYKTTPPMLKSDGSFFLYSKLTVDKSRWQQGNVFSCSVMHEALHNHYTQKSLSLSPGK
B5: iPS:327686 (bispecific antibody, human IgG1, kappa, N297G)
light 1: not shown
heavy 1: not shown
light 2: EIVLTQSPGTLSLSPGERATLSCRASQSVSSGYLTWYQQKPGQAPRLLIYGASSRATGIPDRFSGSGSGTDFTLTISRLEPEDFAVYYCQQYGNSLSRFGQGTKLEIKRTVAAPSVFIFPPSDEQLKSGTASVVCLLNNFYPREAKVQWKVDNALQSGNSQESVTEQDSKDSTYSLKSTLTLSKADYEKHKVYACEVTHQGLSSPVTKSFNRGEC
heavy 2: not shown
B6: iPS:327687 (bispecific antibody, human IgG1, kappa, N297G)
light 1: B3 light 1
heavy 1: not shown
light 2: B5 light 2
heavy 2: not shown

Molecular target: T1, human PAC1 receptor
Test: cell-based or functional assay

% inhibition of human PAC1 | Binder
86% | B1
50% | B2
25% | B3
95% | B4
69% | B5
62% | B6

Molecular target: human CGRP receptor (human, UniProt Q16602 23-461; O60894 27-148)
Sequence (Q16602 23-461 limits assumed, chain 1 of 2): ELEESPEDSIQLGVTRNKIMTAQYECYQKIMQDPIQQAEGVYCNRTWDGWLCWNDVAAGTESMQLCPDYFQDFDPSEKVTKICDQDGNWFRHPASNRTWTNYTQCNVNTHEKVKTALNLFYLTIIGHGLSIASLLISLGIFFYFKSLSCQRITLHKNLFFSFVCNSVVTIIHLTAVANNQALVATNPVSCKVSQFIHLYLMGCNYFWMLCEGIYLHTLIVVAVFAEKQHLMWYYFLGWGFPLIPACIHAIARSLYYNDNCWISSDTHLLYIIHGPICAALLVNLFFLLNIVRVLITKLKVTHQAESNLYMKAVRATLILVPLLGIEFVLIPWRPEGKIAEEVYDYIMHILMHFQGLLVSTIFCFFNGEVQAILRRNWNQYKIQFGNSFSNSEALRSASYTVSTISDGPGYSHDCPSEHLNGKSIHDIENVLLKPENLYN
Sequence (O60894 27-148 limits assumed, chain 2 of 2): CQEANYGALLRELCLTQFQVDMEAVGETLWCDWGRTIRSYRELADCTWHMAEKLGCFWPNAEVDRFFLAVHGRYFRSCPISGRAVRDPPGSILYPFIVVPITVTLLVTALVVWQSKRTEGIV
Test: cell-based or functional assay

% inhibition of human CGRPR | Binder
78% | B1
80% | B2
73% | B3
65% | B4
87% | B5
91% | B6
